In patent US20040235064A1 (YALE UNIVERSITY, published 2004):

Biological target: T1, CZGFP (Aequorea victoria (GFP part); CZ helix …)
T1 construct: Expressed in E. coli BL21(DE3) and purified for the in vitro assays; expressed from a pET11a plasmid in the colony assays; also called EK-CGFP; C-terminal GFP fusion peptide
Test: competition: EK peptide added to refolding NZGFP/CZGFP complex (4 µM), fluorescence at 505 nm; competitor of NZGFP
Protocol: For inhibition experiments all fluorescence measurements were made in triplicate on a Hitachi F-4500 Fluorescence Spectrophotometer with excitation at 475 nm and emission at 505 nm. A 1.2 mM stock solution of equimolar amounts of NZGFP/CZGFP was allowed to reassemble and fluoresce until there was no change in fluorescence (36 hours). The reassembled complex was denatured in 4 M GdmHCl for 4 hours following which different concentrations of EK peptide, NGFP, or CGFP were added and the NZGFP/CZGFP concentration adjusted to 800 μM. The samples were diluted 200 fold into 2 mM DTT, 10 mM Tris.HCl buffer at pH 7.2 to a 20 mM final concentration of Gdm.HCl and allowed to refold and fluoresce. In order to eliminate artifacts from time dependent inhibition, fluorescence measurements were made after 4 hours and after 16 hours and found to be constant.
To verify that the GRIP assay could be utilized for detecting inhibitors of protein-protein interactions (Zutshi, R., et al., 1998, Curr. Opin. Chem. Biol. 2, 62-66), a LZ peptide corresponding to the LZ present in NZGFP (FIG. 4) was synthesized. The reappearance of fluorescence of the disassembled NZGFP/CZGFP complex in an in vitro assay as a function of added peptide was monitored (FIG. 6). The EK peptide (SEQ ID NO: 1) prevented the assembly of the complex (4 μM) with an IC₅₀ value of 31 μM. […]

T1 sequence (chain, as listed by the source): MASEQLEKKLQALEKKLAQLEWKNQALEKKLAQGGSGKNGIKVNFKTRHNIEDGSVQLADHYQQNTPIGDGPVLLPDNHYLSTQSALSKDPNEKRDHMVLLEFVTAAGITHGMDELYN

B1: EK peptide (peptide)
peptide: ALKKELQANKKELAQLKWELQALKKELAQ
notes: Chemically synthesized and HPLC purified; also called LZ peptide
Q: B1 was tested. Which IC50 did it give?
A: 31 µM
